Laboratory results reported in article doi:10.1101/2024.11.06.622243.

Molecular target: T1, HA-Halo-MRAP2 (human), Q96G30
T1 chain: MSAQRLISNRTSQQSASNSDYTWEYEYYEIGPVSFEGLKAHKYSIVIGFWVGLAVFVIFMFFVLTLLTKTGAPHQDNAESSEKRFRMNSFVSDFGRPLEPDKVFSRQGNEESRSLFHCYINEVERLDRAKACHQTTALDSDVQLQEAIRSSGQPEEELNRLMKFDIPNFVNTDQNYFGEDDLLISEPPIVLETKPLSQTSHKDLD
Experiment: single-molecule pull-down (SiMPull); one-colour SiMPull with photobleaching step analysis: HA-Halo-tagged protein labelled on HEK293 cells with membrane-impermeable CA-Sulfo646, lysed in 0.5% LMNG/0.05% CHS, immobilised by biotinylated anti-HA antibody on a PEG-passivated slide, TIRF imaging
Conditions: remark: other sources report otherwise

B1: HA-Halo-MRAP2, Q96G30 1-205 (natural protein)
chain: T1 chain
modifications: here or on the partner: CA-Sulfo646 dye on the Halo tag; CA-Sulfo646 dye on the Halo tag
Binder B1 has a percent of molecules with one bleaching step of 68%, a percent of molecules with three or four bleaching steps of under 5% and a percent of molecules with two bleaching steps of 28%.
